{"source": "patent US20240245795A1", "about": "“PREPARATION METHOD AND APPLICATION OF ANTIBODY DRUG CONJUGATE” (priority 2021, published 2024)", "molecules": {"B1": {"name": "DS-1062a (conjugate, chains of the INN, looked up)", "VH": "QVQLVQSGAEVKKPGASVKVSCKASGYTFTTAGMQWVRQAPGQGLEWMGWINTHSGVPKYAEDFKGRVTISADTSTSTAYLQLSSLKSEDTAVYYCARSGFGSSYWYFDVWGQGTLVTVSS", "VL": "DIQMTQSPSSLSASVGDRVTITCKASQDVSTAVAWYQQKPGKAPKLLIYSASYRYTGVPSRFSGSGSGTDFTLTISSLQPEDFAVYYCQQHYITPLTFGQGTKLEIK", "modifications": "deruxtecan payload"}}, "tested_on": "Human lung squamous carcinoma cells NCI-H2170", "assay": "In vivo anti-tumor experiment (5), NCI-H2170 xenograft", "design": "species or system female nude mice", "settings": "5 mg/kg i.v. single dose", "procedure": "Human lung squamous carcinoma cells NCI-H2170 (ATCC) were suspended in physiological saline. 4×10^7 cells were subcutaneously transplanted into the right flank of female nude mice, which were randomized into groups on day 6. Taking the grouping day as day 0, Antibody Conjugate 13, DS-1062a (the positive control drug) and the hIgG-A-11 conjugate as a negative control group were administered intravenously to the tail at a dose of 5 mg/kg respectively on day 0.", "data": [{"molecule": "B1", "values": [{"measurement": "anti-tumor activity", "result": "showed anti-tumor activity"}]}]}
